The values below come from US10925971B2, “Methods of treating PRLR positive breast cancer” (Regeneron Pharmaceuticals, Inc., priority 2016, dated 2021).

Changes are numbered by the printed parent chain. Like-named read-outs stand apart in the source and are kept apart here.

One experiment relates to T47D#11 tumors. Type of experiment: in vivo, CB17 SCID mice. The following applies: for Average Tumor Growth Inhibition (%) / Final Tumor size mm^3 (mean ± SEM): T47D#11 tumors, SCID mice, Day 66. From the text:
Briefly, 20×10^6 MCF7/PRLR cells (ATCC HTB-22 transfected with full length hPRLR as previously described) were implanted subcutaneously into the left mammary fat pad of female NCr nude mice. In other studies, 10×10^6 PC3/PRLR (ATCC CRL-1435 transfected with full length hPRLR as previously described) were implanted subcutaneously into the left flank of male SCID mice. Additionally, 10×10^6 parental T47D (ATCC HTB-133) or 7.5×10^10 T47D #11 cells (ATCC HTB-133 serially passaged in vivo as described below) were subcutaneously implanted into the left flank of female CB17 SCID mice. All mice were obtained from Taconic (Hudson, N.Y.). Each bolus of cells was supplemented with a 90-day estrogen release pellet (1.7 mg/pellet; Innovative Research America, Sarasota Fla.). […] Control reagents included PBS vehicle, free methyl-disulfide DM1 (DM1-SMe) and isotype Control 1-DM1.
In multi-dose studies, mice were dosed once a week for a total of three weeks with tumor volumes and body weights being monitored twice weekly throughout the study. Test ADCs were dosed at 5 and/or 15 mg/kg in the multi-dose studies. In single-dose studies, mice received a single dose of test ADC, and tumor volumes and body weights were monitored twice weekly throughout the study. Test ADCs were dosed at 1, 2.5, 5, and 15 mg/kg in the single-dose studies. Average tumor size as well as tumor growth inhibition relative to the vehicle treated group were calculated for each group. Tumors were measured with calipers twice a week until the average size of the vehicle group reached 1000 mm^3. Tumor size was calculated using the formula (length×width^2)/2. Tumor growth inhibition was calculated according to the following formula: (1−((Tfinal−Tinitial)/(Cfinal−Cinitial)))*100, where T (treated group) and C (control group) represent the mean tumor mass on the day the vehicle group reached 1000 mm^3. […] Results are summarized in Tables 21-25 (multi-dose) and Table 26 (single dose). (NT=not tested in the particular experiment shown).

Experiment [1] relates to human PRLR in HEK293/hPRLR/STAT5-Luc cells. Nature of the experiment: STAT5-Luc reporter assay, blocking of PRL-mediated receptor activation (5 nM PRL). Format: cell-based. Particulars: read-out: IC50 of Blocking 5 nM PRL; 5 nM constant PRL, 6 hr at 37° C. The text has this:
The ability of anti-PRLR antibodies to block prolactin (PRL)-mediated receptor activation was examined in a luciferase-based reporter assay. The endocrine hormone PRL binds to the extracellular domain of its cognate receptor PRLR, triggering rapid homodimerization and activating several downstream signaling cascades.
In this example, an engineered cell line was used to determine the ability of anti-PRLR antibodies to block ligand activation of the PRLR receptor. Briefly, HEK293/hPRLR/STAT5-Luc cell lines with stable incorporation of a human PRLR expression cassette and the STAT5-dependent luciferase reporter were generated via sequential rounds of Lipofectamine® 2000-mediated transfection (LifeTechnologies, Carlsbad, Calif.). Cells were selected for at least two weeks in the presence of 500 μg/mL G418 (hPRLR) and 100 μg/mL hygromycin B (STAT5-Luc). The STAT5-Luc assay utilized 2×10^5 HEK293/hPRLR/STAT5-Luc cells seeded in complete growth medium on PDL-coated 96 well plates grown overnight at 37° C., 5% CO2. To generate antibody inhibition curves, cells were incubated (6 hr at 37° C.) with serially diluted anti-human PRLR antibodies (100 nM to 24 pM) in the presence of 5 nM constant PRL before recording signal. PRL dose response curves were generated by the addition of serially diluted PRL (100 nM to 24 pM) to cells and recording signal after a 6 hr (37° C.) incubation in the absence of antibodies. The ability of the antibodies to activate PRLR in the absence of ligand was also assessed.
Luciferase activity was measured with ONE-Glo™ reagent (Promega, Madison, Wis.). Relative light units (RLUs) were measured on a Victor luminometer (Perkin Elmer, Shelton, Conn.). EC50/IC50 values were determined from a four-parameter logistic equation over an 8-point response curve using GraphPad Prism. Percent blocking and percent activation are reported for the highest antibody dose.

The next experiment relates to T47Dv11 tumors. The experiment can be described thus: T47Dv11 breast tumor xenograft, single agent and combination with fulvestrant. Type of experiment: in vivo, C.B.-17 SCID mice. The protocol: The T47Dv11 model was used to assess the activity of H1H6958N2-DM1 in a model with significant levels of endogenous PRLR. […] Initially, 10×10^6 parental T47D cells were implanted subcutaneously (SC) into the left flank of female C.B.-17 SCID mice (Taconic, Hudson N.Y.). Tumors were supplemented with a 90-day release 1.7 mg estrogen pellet (Innovative Research America). Where T47D tumors were observed, they were excised and cut into 3 mm fragments and subsequently implanted into the left flank of separate female C.B.-17 SCID mice. Subsequent passaging was performed until a large tumor was disaggregated into a single cell suspension. The cells (named T47Dv11) from this tumor were then cultured in vitro and expanded. […] For efficacy studies, mice were implanted with 7.5×10^6 T47Dv11 cells into the left flank of female C.B.-17 SCID mice supplemented with a 90-day release 0.72 mg/pellet estrogen pellet. For MCF7 and MCF7/PRLR tumor xenografts, 2×10^7 MCF7/PRLR cells were implanted SC into the left mammary fat pad of female NCr nude mice (7-8 weeks old) supplemented with 90-day release 0.72 mg/pellet estrogen pellets. Tumors were measured with calipers twice a week for the duration of each study. Tumor volume was calculated using the formula TV=(length×width^2)/2.
After T47Dv11 tumors reached an average volume of ˜150-200 mm^3 (14-16 days post implantation), mice were randomized into treatment groups (n=8-9 mice/group) and received a single dose or three once-weekly doses of H1H6958N2-DM1, control ADC, or vehicle control, administered systemically by intravenous tail-vein injection. […] Tumor size and body weight were measured in vivo twice per week throughout the duration of the study.
Next, the combination of H1H6958N2-DM1 with the SERD fulvestrant was tested in the T47Dv11 xenograft model. Here, the activity of either agent at partially effective doses was compared against the activity of the agents in combination. First, a dose titration study of weekly administration of fulvestrant was performed in order to establish its single agent activity (FIG. 4).
For the subcutaneous tumors, average tumor size as well as tumor growth inhibition relative to the Vehicle treated group were calculated for each group. Tumors were measured with calipers twice a week until the average size of the vehicle group reached 1200 mm^3. Tumor size was calculated using the formula (length×width^2)/2. For all studies, tumor growth inhibition was calculated according to the following formula: (1−((Tfinal−Tinitial)/(Cfinal−Cinitial)))*100, where T (treated group) and C (control group) represent the mean tumor mass on the day the vehicle group reached 1000 mm^3.

B1: H1H6782P: fully human anti-PRLR antibody, non-blocking; HCVR/LCVR SEQ ID NOs 66/74 (antibody, V domains shown)
VH: EVQLVESGGGLVQPGRSLRLSCAASGFTFDDYAMHWVRQAPGKGLEWVSGIIWNSGHIGYGDSVKGRFTISRDNAKKSLYLQMNSLRAEDTALYYCARDSGRYQSYFDYWGQGTLVTVSS
VL: DIQMTQSPSTLSASVGDRVTITCRASHIISSWLAWYQQKPGKAPKVLIFKASSLESGVPSRFSGSGSGTEFTLTISSLQPDDFATYYCQQYNTYSRTFGQGTKVEIK
In the case of B1, in the experiment on T47D#11 tumors (multi-dose 15 mg/kg), the “Average Tumor Growth Inhibition (%)” value is given as −29% and the “Final Tumor size mm^3 (mean ± SEM)” value was 1537 ± 111 mm^3.

B2: H1H6795P: fully human anti-PRLR antibody, human IgG1 Fc; HCVR/LCVR SEQ ID NOs 162/170 (antibody, V domains shown)
VH: QVQLVQSGAEVKKPGASVKVSCKASGYTFGTSGITWVRQAPGQGLEWMGWSSAYNGKTDYAQKFQDRVTMTTDTSTTTGYMEMRSLTSDDTAVYYCTTVVRRPFDFWGQGTLVTVSS
VL: DIQMTQSPSSLSASVGDRVTITCRASQDINNFLAWFQQKPGKAPKSLIYAASSLQSGVPSKFSGGGSGTDFALTISSLQPEDFATYYCQQYSSYPITFGQGTRLEIK
On to B2, for which, in experiment [1], the IC50 was > 100 nM.

B3: H1H6774P: fully human anti-PRLR antibody, human IgG1 Fc; HCVR/LCVR SEQ ID NOs 34/42 (antibody, V domains shown)
VH: EVQLVESGGGLAQPGGSLRLSCVASGFTFSTYWMSWVRQAPGKGLDWVGNIKQDGSEQNYVDSVRGRFTISRDNAKNSLFLQMNSLRAEDTGVYYCATLLTKGDYWGQGTLVTVSS
VL: DIQMTQSPSSLSASVGDSVTITCRASQDISNYLDWFQQKPGKAPKSLIYAASILQGGVPSRFSGSGYGTDFTLTISSLQPEDFATYYCRQYKTYPFTFGPGTKVDIK
Regarding B3, the IC50 in experiment [1] is > 100 nM.

B4: H1H6765P: fully human anti-PRLR antibody, human IgG1 Fc; HCVR/LCVR SEQ ID NOs 18/26 (antibody, V domains shown)
VH: EVQLVESGGGVVRPGGSLRLSCVGSGFSFDDHGMNWVRQGPGKGLEWVSGFNWNGGSTNYAESVKGRFTISRDNARNSLFLQMNSLRAEDTALYYCVRGRSGWFNDAFDVWGPGTMVTVSS
VL: EIVLTQSPGTLSLSPGERATLSCRASQTINSNYLAWYRQKPGQTPRLLIYGTSSRATGIPDRFSGSGSGTDFSLTISRLEPEDFAVFYCQQYAGLPTFGPGTKVDIK
Consider B4, for which, in the experiment with T47D#11 tumors (multi-dose 15 mg/kg), the “Average Tumor Growth Inhibition (%)” value is reported as −3% and the “Final Tumor size mm^3 (mean ± SEM)” value was determined as 1278 ± 164 mm^3.

B5: H1H6958N2-DM1: anti-PRLR antibody H1H6958N2 conjugated to the maytansinoid DM1 through an SMCC linker (conjugate)
VH: QVQLVESGGGVVQPGRSLRLSCGASGFTFRNYGMQWVRQGPGKGLEWVTLISFDGNDKYYADSVKGRFTISRDNSKNTLFLQMNSLRTEDTAVYYCARGGDFDYWGQGTLVTVSS
VL: DIQMTQSPSSLSASVGDRVTITCRASQDIRKDLGWYQQKPGKAPKRLIYAASSLHSGVPSRFSGSGSGTEFTLTISSLQPEDFATYYCLQHNSYPMYTFGQGTKLEIK
As for B5, the “Average Tumor Growth Inhibition (%)” value was found to be 102% in the experiment with T47D#11 tumors (multi-dose 5 mg/kg) and 112% with T47D#11 tumors (multi-dose 15 mg/kg). Besides, the “Final Tumor size mm^3 (mean ± SEM)” value in the experiment on T47D#11 tumors (multi-dose 5 mg/kg) came out at 168 ± 19 mm^3; in the experiment on T47D#11 tumors (multi-dose 15 mg/kg), 44 ± 5 mm^3. The “T47D #11 tumor growth” value in the experiment with T47D#11 tumors (repeat dosing 5 and 15 mg/kg) is “potently inhibited tumor growth”. In addition, the “Final Tumor Volume (mean ± SD)” value with T47Dv11 tumors (T47DvII tumors in SCID mice, Day 70, 2.5 mg/kg) is reported as 386 ± 249 mm^3. Besides, the “anti-tumor activity” value with T47Dv11 tumors (combination study, individual treatment 2.5 mg/kg single dose) is reported as “Significant anti-tumor activity”. In addition, the “tumor growth” value is recorded as “significantly inhibited tumor growth” in the experiment on T47Dv11 tumors (single dose 2.5 or 5 mg/kg) and “tumor regression” in the experiment on T47Dv11 tumors (three doses of 5 or 15 mg/kg).

B6: H1H6958N2: anti-PRLR antibody, receptor blocking, human IgG1 Fc form of H2M6958N2 of Table 1; HCVR/LCVR SEQ ID NOs 290/298 (antibody, V domains shown)
VH: B5 VH
VL: B5 VL
On to B6, for which, in the experiment with T47D#11 tumors (multi-dose 15 mg/kg), the “Average Tumor Growth Inhibition (%)” value is −3% and the “Final Tumor size mm^3 (mean ± SEM)” value was found to be 1259 ± 122 mm^3. For the same molecule, the “tumor growth, controls” value in the experiment with T47Dv11 tumors (T47Dv11 model, dose not stated) was “no effect on tumor growth”.

B7: H1H6797P: fully human anti-PRLR antibody, human IgG1 Fc; HCVR/LCVR SEQ ID NOs 178/186 (antibody, V domains shown)
VH: EVQLVESGGGLVQPGGSLRLSCIVSGFTFSGSWMSWVRQLPGKGLEWVANIKEDGSDSYYVDSVEGRFTISRDNAKSSLYLQMNSLRVDDTAVYFCARARTVPLHYWGQGTLVTVSS
VL: DIQMTQSPSTLSASVGDRVTITCRASQSINIWLAWYQQKPGKAPKLLIYRASYLESGVPSSFAGGGSGTEFTLTISSLQPDDFGTYYCQHYNSYPFTFGQGTKLEIK
Consider B7, for which, in experiment [1], the IC50 was > 100 nM.
